In patent US20260265379A1:

B1: bsAb021 (bispecific antibody)
heavy: QVQLVQSGAEVKKPGASVKLSCKASGYIFTRYYMYWVKQRPGQGLEWIGEINPNNGGTKFNEKFKNRATLTVDKSISTAYMELSRLRSDDTAVYYCSREDDYDGTPFAMDYWGQGTLVTVSSGGGGSGGGGSGGGGSGGGGSDIQMTQSPSSLSASVGDRVTITCHASQNINVWLSWYQQKPGKAPKLLIYKASNLHTGVPSRFTGSGSGTDFTFTISSLQPEDIATYYCQQGQTYPYTFGQGTKLEIKGGGGSGGGGSGGGGSGGGGSQVQLVQSGVEVKKPGASVKVSCKASGYTFTNYYMYWVRQAPGQGLEWMGGINPSNGGTNFNEKFKNRVTLTTDSSTTTAYMELKSLQFDDTAVYYCARRDYRFDMGFDYWGQGTTVTVSSASTKGPSVFPLAPSSKSTSGGTAALGCLVKDYFPEPVTVSWNSGALTSGVHTFPAVLQSSGLYSLSSVVTVPSSSLGTQTYICNVNHKPSNTKVDKRVEPKSCDKTHTCPPCPAPEFEGGPSVFLFPPKPKDTLMISRTPEVTCVVVDVSHEDPEVKFNWYVDGVEVHNAKTKPREEQYNSTYRVVSVLTVLHQDWLNGKEYKCKVSNKALPASIEKTISKAKGQPREPQVYTLPPSREEMTKNQVSLTCLVKGFYPSDIAVEWESNGQPENNYKTTPPVLDSDGSFFLYSKLTVDKSRWQQGNVFSCSVMHEALHNHYTQKSLSLSPG
light: EIVLTQSPATLSLSPGERATLSCRASKGVSTSGYSYLHWYQQKPGQAPRLLIYLASYLESGVPARFSGSGSGTDFTLTISSLEPEDFAVYYCQHSRDLPLTFGGGTKVEIKRTVAAPSVFIFPPSDEQLKSGTASVVCLLNNFYPREAKVQWKVDNALQSGNSQESVTEQDSKDSTYSLSSTLTLSKADYEKHKVYACEVTHQGLSSPVTKSFNRGEC
B2: bsAb034 (bispecific antibody, not shown: small tags and cut ends; a dimerising Fc or GST)
heavy (part 1 of 2): QVQLVQSGVEVKKPGASVKVSCKASGYTFTNYYMYWVRQAPGQGLEWMGGINPSNGGTNFNEKFKNRVTLTTDSSTTTAYMELKSLQFDDTAVYYCARRDYRFDMGFDYWGQGTTVTVSS
heavy (part 2 of 2): GGGGSGGGGSGGGGSGGGGSQVQLVQSGAEVKKPGASVKLSCKASGYIFTRYYMYWVKQRPGQGLEWIGEINPNNGGTKFNEKFKNRATLTVDKSISTAYMELSRLRSDDTAVYYCSREDDYDGTPFAMDYWGQGTLVTVSSGGGGSGGGGSGGGGSGGGGSDIQMTQSPSSLSASVGDRVTITCHASQNINVWLSWYQQKPGKAPKLLIYKASNLHTGVPSRFTGSGSGTDFTFTISSLQPEDIATYYCQQGQTYPYTFGQGTKLEIK
heavy: B2 heavy (part 2 of 2)
light: B1 light
B3: bsAb009 (bispecific antibody)
heavy: QVQLVQSGVEVKKPGASVKVSCKASGYTFTNYYMYWVRQAPGQGLEWMGGINPSNGGTNFNEKFKNRVTLTTDSSTTTAYMELKSLQFDDTAVYYCARRDYRFDMGFDYWGQGTTVTVSSASTKGPSVFPLAPSSKSTSGGTAALGCLVKDYFPEPVTVSWNSGALTSGVHTFPAVLQSSGLYSLSSVVTVPSSSLGTQTYICNVNHKPSNTKVDKRVEPKSCDKTHTCPPCPAPEFEGGPSVFLFPPKPKDTLMISRTPEVTCVVVDVSHEDPEVKFNWYVDGVEVHNAKTKPREEQYNSTYRVVSVLTVLHQDWLNGKEYKCKVSNKALPASIEKTISKAKGQPREPQVYTLPPSREEMTKNQVSLTCLVKGFYPSDIAVEWESNGQPENNYKTTPPVLDSDGSFFLYSKLTVDKSRWQQGNVFSCSVMHEALHNHYTQKSLSLSPG
light: EIVLTQSPATLSLSPGERATLSCRASKGVSTSGYSYLHWYQQKPGQAPRLLIYLASYLESGVPARFSGSGSGTDFTLTISSLEPEDFAVYYCQHSRDLPLTFGGGTKVEIKRTVAAPSVFIFPPSDEQLKSGTASVVCLLNNFYPREAKVQWKVDNALQSGNSQESVTEQDSKDSTYSLSSTLTLSKADYEKHKVYACEVTHQGLSSPVTKSFNRGECGGGGSGGGGSGGGGSGGGGSQVQLVQSGAEVKKPGASVKLSCKASGYIFTRYYMYWVKQRPGQGLEWIGEINPNNGGTKFNEKFKNRATLTVDKSISTAYMELSRLRSDDTAVYYCSREDDYDGTPFAMDYWGQGTLVTVSSGGGGSGGGGSGGGGSGGGGSDIQMTQSPSSLSASVGDRVTITCHASQNINVWLSWYQQKPGKAPKLLIYKASNLHTGVPSRFTGSGSGTDFTFTISSLQPEDIATYYCQQGQTYPYTFGQGTKLEIK
B4: bsAb037 (bispecific antibody, not shown: small tags and cut ends; a dimerising Fc or GST)
heavy 1: B2 heavy (part 1 of 2)
heavy 2: DIQMTQSPSSLSASVGDRVTITCHASQNINVWLSWYQQKPGKAPKLLIYKASNLHTGVPSRFTGSGSGTDFTFTISSLQPEDIATYYCQQGQTYPYTFGQGTKLEIKGGGGSGGGGSGGGGSGGGGSQVQLVQSGAEVKKPGASVKLSCKASGYIFTRYYMYWVKQRPGQGLEWIGEINPNNGGTKFNEKFKNRATLTVDKSISTAYMELSRLRSDDTAVYYCSREDDYDGTPFAMDYWGQGTLVTVSSGGGGSGGGGSGGGGSGGGGS
light: B3 light

The binders below were run against BTN3A expressed at the cell surface (human), O00481 (assay: cell-based or functional assay).
Sequence of BTN3A expressed at the cell surface (human), O00481 (O00481 30-513): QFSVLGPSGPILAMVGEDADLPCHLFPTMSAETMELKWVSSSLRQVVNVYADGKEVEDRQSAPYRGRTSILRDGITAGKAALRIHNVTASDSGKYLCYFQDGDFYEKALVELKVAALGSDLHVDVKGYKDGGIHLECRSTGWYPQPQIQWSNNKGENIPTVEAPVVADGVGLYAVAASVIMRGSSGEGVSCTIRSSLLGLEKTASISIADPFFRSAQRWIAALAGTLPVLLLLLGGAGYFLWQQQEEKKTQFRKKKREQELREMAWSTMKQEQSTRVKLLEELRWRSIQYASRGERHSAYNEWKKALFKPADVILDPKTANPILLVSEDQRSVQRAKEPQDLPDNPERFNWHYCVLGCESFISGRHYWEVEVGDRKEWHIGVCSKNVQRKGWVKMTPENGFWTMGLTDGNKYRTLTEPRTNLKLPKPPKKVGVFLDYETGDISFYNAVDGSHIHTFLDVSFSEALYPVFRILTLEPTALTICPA

| Jurkat-Vy9Vo2 TCR MOP activation at 0.5 nM (fold-change to medium) | Jurkat-Vy9Vo2 TCR MOP activation at 5 nM (fold-change to medium) | Binder |
| --- | --- | --- |
| 1.6 | 1.5 | B1 |
| 0.9 | 1.1 | B2 |
| 1 | 0.8 | B3 |
| 1.2 | 1.7 | B4 |
